Test results published in patent US20210196842A1, “SITE-SPECIFIC RADIOFLUORINATION OF PEPTIDES WITH 8-[18F]-FLUOROOCTANOIC ACID CATALYZED BY LIPOIC ACID LIGASE” (THE REGENTS OF THE UNIVERSITY OF CALIFORNIA, priority 2015, published 2021).
Each block holds one molecule with its values, some of them ahead of it.

How the values were obtained:
[1] = target: human uPAR (Homo sapiens, UniProt Q03405); experiment: Binding of 2G10 Fabs to uPAR measured using Octet instrument
Procedure: Measurement of 2G10-Fab-FA-LAP Affinity for uPAR: Stocks solutions were diluted to the following concentrations in 100 μL PBS: 2G10-Fab-LAP (10 μM), Lp1AΔHis (50 μM), FA (750 μM), ATP (3 mM), Mg(OAc)2 (5 mM). The resulting solution was incubated at 30° C. for 15 h and then quenched with 100 μL. 360 mM EDTA. Kinetic constants this sample, along with 2G10 and 2G10-Fab-LAP, were determined using an Octet RED384 instrument (ForteBio). Four concentrations of each Fab (500 nM, 250 nM, 100 nM and 50 nM) were tested for binding to the biotinylated antigen (human uPAR) immobilized on ForteBio streptavidin SA biosensors. All measurements were performed at room temperature in 384-well microplates and the running buffer was PBS with 0.1% (w/v) bovine serum albumin (BSA) and 0.02% (v/v) Tween 20. Biotinylated human uPAR was loaded for 180 s from a solution of 150 nM, baseline was equilibrated for 60 s, and then the Fabs were associated for 120 s followed by 300 s disassociation. Between each Fab sample, the biosensor surfaces were regenerated three times by exposing them to 10 mM glycine, pH 1.5 for 5 s followed by PBS for 5 s. Data were analyzed using a 1:1 interaction model on the ForteBio data analysis software 8.2.

[2] = target: human urokinase plasminogen activator receptor (uPAR), biotinylated (human) (UniProt Q03405); experiment: BLI (Octet RED384), biotinylated human uPAR on streptavidin biosensors, Fab in solution, 1:1 model
Chain of human urokinase plasminogen activator receptor (uPAR), biotinylated (human) (Q03405 23-303 limits assumed): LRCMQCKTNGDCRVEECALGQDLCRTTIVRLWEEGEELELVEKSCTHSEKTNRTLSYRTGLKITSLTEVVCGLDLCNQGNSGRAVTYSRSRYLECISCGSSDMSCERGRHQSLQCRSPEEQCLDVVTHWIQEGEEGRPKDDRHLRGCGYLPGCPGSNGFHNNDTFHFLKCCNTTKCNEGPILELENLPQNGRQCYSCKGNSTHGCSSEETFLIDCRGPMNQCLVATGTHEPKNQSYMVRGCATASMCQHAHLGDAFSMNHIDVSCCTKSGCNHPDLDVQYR

[3] = target: T1, human urokinase plasminogen activator receptor (uPAR), biotinylated (human, UniProt Q03405 23-303); experiment: as above
T1 construct: also called human uPAR; biotinylated human uPAR

[4] = target: T2, LAP peptide (Ac-GFEIDKVWYDLDA-OH)
T2 chain: GFEIDKVWYDLDA

[5] = target: T3, scrambled LAP peptide (Ac-EFDDWKYADVGLI)
T3 chain: EFDDWKYADVGLI

Chain of human uPAR (Q03405 23-305): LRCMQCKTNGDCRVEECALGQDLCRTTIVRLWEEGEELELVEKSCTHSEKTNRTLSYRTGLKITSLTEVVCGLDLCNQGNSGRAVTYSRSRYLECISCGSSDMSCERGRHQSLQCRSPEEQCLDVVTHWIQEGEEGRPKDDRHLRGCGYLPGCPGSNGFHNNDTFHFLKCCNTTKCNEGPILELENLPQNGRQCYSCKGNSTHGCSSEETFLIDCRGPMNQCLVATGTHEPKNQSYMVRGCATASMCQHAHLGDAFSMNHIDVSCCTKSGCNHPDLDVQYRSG

Kd ([1]; Octet RED384, biotinylated human uPAR on streptavidin biosensors, room temperature, 1:1 interaction model, read-out: KD (nM), dissociation constants for 2G10-Fabs with uPAR): 31 ± 2.2 nM
B1: 2G10-Fab-LAP: 2G10 Fab with the LAP peptide sequence inserted at the C-terminus of the heavy chain (antibody)
heavy: QVQLQQSGPGLVKPSQTLSLTCAISGDSVSSNSAAWNWIRQSPSRGLEWLGRTYYRSKWYNDYAVSVKSRIIINPDTSKNQFSLQLNSVTPEDTAVYYCARDPGGPLDDSFDIWGQGTMVTVSSASTKGPSVFPLAPSSKSTSGGTAALGCLVKDYFPEPVTVSWNSGALTSGVHTFPAVLQSSGLYSLSSVVTVPSSSLGTQTYICNVNHKPSNTKVDKKVEPKSCAAHHHHHHAAGFEIDKVWYDLDA
light: DVVMTQSPLSLPVTPGEPASISCRSSQSLLRSNGYNYLDWYLQKPGQSPQLLIYLGSIRASGVPDRFSGSGSGTDFTLRISRVEAEDVGVYYCMQALQTPFTFGQGTKLEIKRTVAAPSVFIFPPSDEQLKSGTASVVCLLNNFYPREAKVQWKVDNALQSGNSQESVTEQDSKDSTYSLSSTLTLSKADYEKHKVYACEVTHQGLSSPVTKSFNRGEC
differences in binding affinity for uPAR between the Fabs ([1]; Octet, after bioconjugation with excess [19F]-FA): No significant differences in binding affinity

Kd [2]: 31 nM
B2: 2G10-Fab-LAP (Fab, V domains shown)
VH: QVQLQQSGPGLVKPSQTLSLTCAISGDSVSSNSAAWNWIRQSPSRGLEWLGRTYYRSKWYNDYAVSVKSRIIINPDTSKNQFSLQLNSVTPEDTAVYYCARDPGGPLDDSFDIWGQGTMVTVSS
VL: DVVMTQSPLSLPVTPGEPASISCRSSQSLLRSNGYNYLDWYLQKPGQSPQLLIYLGSIRASGVPDRFSGSGSGTDFTLRISRVEAEDVGVYYCMQALQTPFTFGQGTKLEIKR

Kd [3]: 38 nM
B3: 2G10-Fab (Fab, V domains shown)
VH: B2 VH
VL: B2 VL

B4: LplA-His6 (E. coli lipoic acid ligase) (protein)
chain: MSTLRLLISDSYDPWFNLAVEECIFRQMPATQRVLFLWRNADTVVIGRAQNPWKECNTRRMEEDNVRLARRSSGGGAVFHDLGNTCFTFMAGKPEYDKTISTSIVLNALNALGVSAEASGRNDLVVKTTEGDRKVSGSAYRETKDRGFHHGTLLLNADLSRLANYLNPDKKKLAAKGITSVRSRVTNLTELLPEITHEQVCEAIREAFFAHYGERVEAEIISPDKTPDLPNFAETFARQSSWEWNFGQAPAFSHLLDERFTWGGVELHFDVEKGHITRAQVFTDSLNPAPLEALAGRLQGCLYRADMLQQECEALLVDFPEQEKELRELSTWIAGAVR
Yield/% (radio-TLC conjugation yield of [18F]-FA) [4]: 91%
conversion of LAP to [19F]-FA-LAP, RP-HPLC [4]: complete at 30 minutes
Yield/% (radio-TLC conjugation yield of [18F]-FA) [5]: 0%
conjugation of FA to peptide, RP-HPLC [5]: No productive reaction was observed after 60 minutes
